Source: patent US6333167

How the values were obtained:
[1] = biological target: LacI-SREBP2 fusion protein encoded by pCMV-ISRP (human (SREBP2 portion))
[2] = biological target: APP-LacI fusion protein encoded by pCMV-APPI (Artificial Sequence)

luciferase activity in the repressor release assay (pRSVO-luc reporter, CHO-K1 cells) (fold reduction) [1] | luciferase activity in the repressor release assay (pRSVO-luc reporter, CHO-K1 cells) (fold reduction) [2] | Substance
100 | – | Site-2 protease (S2P) (enzyme)
– | 35 | γ-secretase (enzyme)
